{"source": "patent US20230257435A1", "about": "“Wound Healing Composition and Uses Thereof” (AGENCY FOR SCIENCE, TECHNOLOGY AND RESEARCH, priority 2020, published 2023)", "molecules": {"B1": {"name": "sAgrin: C-terminus recombinant Agrin fragment containing 8 amino acid 'Z8' insert and LG3 domain (SEQ ID NO: 7), His-tagged, expressed in E. coli (protein)", "chain": "DTLAFDGRTFVEYLNAVTESELANEIPVEKALQSNHFELSLRTEATQGLVLWSGKATERADYVALAIVDGHLQLSYNLGSQPVVLRSTVPVNTNRWLRVVAHREQREGSLQVGNEAPVTGSSPLGATQLDTDGALWLGGLPELPVGPALPKAYGTGFVGCLRDVVVGRHPLHLLEDAVTKPELRPCPTP", "modifications": "His tag"}}, "key": {"[1]": {"system": "primary mouse keratinocytes over dermal fibroblasts", "assay": "3D-stiffness dependent keratinocyte fibroblast co-culture migration assay", "format": "cell-based", "settings": "10 μg/ml sAgrin", "from_the_text": "A 3D in-vitro wound healing model was created using collagen constructs of defined stiffness modifying a previously published protocol. Collagen constructs were made with Col-T-gel (0.8 KPa-soft) or (30 KPa-stiff) as per manufacturer's recommended protocol containing 300,000 primary mouse dermal fibroblasts (DFs). For some experiments, siControl and siAgrin treated DFs were incorporated within soft or stiff collagen constructs. The constructs bearing fibroblasts were allowed to solidify for 45 min inside incubator. A second layer of collagen matching the stiffness of the underneath layer was added containing 350,000 of primary mouse keratinocytes (KRTs) and the construct was allowed to solidify for 3-4 h. After removing excess media, the constructs were washed gently with 1×PBS twice. An upside down 2μ pipette tip was inserted and gently rotated at the center of the constructs to create a circular wound. The collagen and cells was quickly removed from the wound area and replaced with 40 μl of soft or stiff Col-T-gel matching the consistency and set-up of the constructs. The resultant wounded constructs were placed inside the incubator and imaged after 30 min for day 0 time-points. The migratory keratinocytes were imaged till day 5 post-wounding."}, "HaCaT cells": {"system": "HaCaT cells", "assay": "Traction force microscopy and PIV of collective migration", "format": "cell-based, human", "method": "Substrate preparation—Two-part silicone elastomer, DOWSIL CY52-276 (Dow Inc.), is first mixed thoroughly in a 1:1 weight ratio. The mixture is then poured into a 35 mm glass-bottom culture dish (iwaki 3930-035, Asahi Techno Glass Corporation, Japan) placed on a level surface, to a thickness of ˜500 μm. After pre-curing overnight, the silicone coated culture dish is further baked for 2 hours at 80° C. to fully cure. To maximize subsequent microsphere attachment, the silicone film is pre-treated with (3-aminopropyl) triethoxysilane (A3648, Sigma-Aldrich). To silanize, a 1 ml solution containing 96% v/v, 2% v/v APTES and 1% v/v acetic acid (A6283, Sigma Aldrich) is added to the glass-bottom culture dish, covering the whole silicone film, and left for 10 minutes to react. The silicone film is then twice rinsed with 96% v/v ethanol and followed by a quick dip in Milli-Q water to remove all the solution: removing solution from the film this way is preferred over blow-drying with nitrogen gas because the latter may introduce dust to the surface which subsequently affects the uniformity of attached microsphere distribution. Following this, the culture-dish is baked at 80° C. for another 2 hours to promote siloxane bond formation. For the physisorption of fluorescent latex microspheres on to the silicone film, 6 μl of 100 nm orange fluorescent (540/560) carboxylate-modified microspheres (F8800, ThermoFisher Scientific) is first diluted in 10 ml of Milli-Q water and sonicated for 10 minutes. The diluted microspheres are then passed through a 0.22 μm filter directly into a 15 ml falcon tube containing 500 μl of 500 mM MES buffer, pH 6.0 (M3671, Sigma Aldrich). The microspheres are then sonicated again for 10 minutes before being added to cover the APTES silanized silicone film within the culture dish previously prepared. The solution was left for 5 minutes to allow the microspheres to attach. […] The stiffness of silicone substrates used for TFM were determined by atomic force microscopy as per previously established protocols as described in the section below. […]"}, "[2]": {"settings": "Agrin depleted cells supplemented with sAgrin"}}, "note": "Entries after “also recorded” stand apart in the source; their conditions may differ.", "data": [{"molecule": "B1", "values": [{"measurement": "keratinocyte migration in soft matrix", "setting": "[1]; 0.8 KPa, day 5", "result": "strongly enhanced keratinocyte migration; also recorded: stimulated mouse keratinocyte migration over dermal fibroblasts"}, {"measurement": "keratinocyte migration in stiff matrix, Agrin depleted KRTs and DFs", "setting": "[1]; 30 KPa", "result": "strongly restored keratinocyte migration"}, {"measurement": "keratinocyte migration, MMP12 depleted KRTs and DFs", "setting": "[1]; soft matrix 0.8 KPa", "result": "not even rescued by sAgrin supplemented compliant matrices"}, {"measurement": "traction force at migrating leading edge of MMP12 depleted keratinocytes", "setting": "HaCaT cells; 10 μg/ml sAgrin 18-24 h", "result": "failed to induce sufficient traction force"}, {"measurement": "collective traction stress at the leading front", "setting": "HaCaT cells; [2]", "result": "significantly enhanced"}, {"measurement": "coordinated velocity fields and fluidic collective migration (PIV)", "setting": "HaCaT cells; [2]", "result": "significantly enhanced"}]}]}
